Assay results as given in article PMC3553496 (Science signaling, 2011).
Each block holds one binder with its values, some of them ahead of it.

Assays:
Test in all cases: peptide or protein array
[1] = molecular target: T1, UPF0027 protein C22orf28 peptide (18-mer) (human)
T1 peptide: GSTRAFPPHHPLIAVDYQ

[2] = molecular target: T2, Coiled-coil domain–containing protein KIAA1826 peptide (18-mer) (human)
T2 peptide: SRRENELPDFPHIDEFFT

[3] = molecular target: T3, EGFR kinase substrate 8 peptide (18-mer) (human)
T3 peptide: PKEQFIPPYVPRFRNGWE

[4] = molecular target: T4, SET and MYND domain–containing protein 3 peptide (18-mer) (human)
T4 peptide: NGLRAVTPLRPGELLFRS

[5] = molecular target: T5, Diaphanous homolog 1 peptide (18-mer) (human)
T5 peptide: LPGGTAIPPPPPLPGSAR

[6] = molecular target: T6, Splicing factor 1 peptide (18-mer) (human)
T6 peptide: GMPPFGMPPAPPPPPPQN

[7] = molecular target: T7, DAZ-associated protein 1 peptide (18-mer) (human)
T7 peptide: QFSFGYGPPPPPPDQFAP

[8] = molecular target: T8, Dishevelled, dsh homolog 3 peptide (18-mer) (human)
T8 peptide: MAFPRPRPWGPQEPLRAA

[9] = molecular target: T9, YLP motif–containing protein 1 peptide (18-mer) (human)
T9 peptide: HHLPPPPLPPPPVMPGGG

[10] = molecular target: T10, Gephyrin peptide (18-mer) (human)
T10 peptide: FGRVFMKPGLPTTFATLD

[11] = molecular target: T11, Glutamate–cysteine ligase catalytic peptide (18-mer) (human)
T11 peptide: WQTMRFKPPPPNSDIGWR

[12] = molecular target: T12, Tyrosine protein kinase ABL1 peptide (18-mer) (human)
T12 peptide: KKKKKTAPTPPKRSSSFR

[13] = molecular target: T13, Adenylyl cyclase–associated protein 1 peptide (18-mer) (human)
T13 peptide: PPPPPPCPPPPPVSTISC

[14] = molecular target: T14, Proline-rich protein 4 peptide (18-mer) (human)
T14 peptide: GHRQLSLPRFPSVSLQEA

[15] = molecular target: T15, Statherin peptide (18-mer) (human)
T15 peptide: RFGYGYGPYQPVPEQPLY

[16] = molecular target: T16, Serine-threonine protein kinase N3 peptide (18-mer) (human)
T16 peptide: EMTPPPKPPRLYLPQEPT

[17] = molecular target: T17, Ankyrin repeat and SAM domain–containing protein 1A peptide (18-mer) (human)
T17 peptide: DRPYEEPPQKPPRFSQLR

[18] = molecular target: T18, Rab11 family interacting protein 5 peptide (18-mer) (human)
T18 peptide: RIMETSPTLLQIPPGPPK

[19] = molecular target: T19, Focal adhesion kinase 1 peptide (18-mer) (human)
T19 peptide: DPAAPPKKPPRPGAPGHL

[20] = molecular target: T20, NEDD9-interacting protein with calponin homology and LIM domains peptide (18-mer) (human)
T20 peptide: DPEMEPPPKPPRSCSALA

[21] = molecular target: T21, Tight junction protein ZO-2 peptide (18-mer) (human)
T21 peptide: FGRSILKPSTPIPPQEGE

[22] = molecular target: T22, U1 small nuclear ribonucleoprotein C peptide (18-mer) (human)
T22 peptide: GAMIPPPPSLPGPPRPGM

[23] = molecular target: T23, Serine-threonine protein kinase WNK1 peptide (18-mer) (human)
T23 peptide: NATALELPGLPLSLPQPS

relative binding strength (% of the strongest interaction of this SH3 domain) [1]: 13%
relative binding strength (% of the strongest interaction of this SH3 domain) [2]: 70%
relative binding strength (% of the strongest interaction of this SH3 domain) [3]: 24%
relative binding strength (% of the strongest interaction of this SH3 domain) [4]: 100%
B1: GST-tagged ARHGAP9 SH3 domain (domain or fragment, human, UniProt Q9BRR9 25-87, looked up)
chain: SQLCALYAFTYTGADGQQVSLAEGDRFLLLRKTNSDWWLARRLEAPSTSRPIFVPAAYMIEES

relative binding strength (% of the strongest interaction of this SH3 domain) [5]: 100%
relative binding strength (% of the strongest interaction of this SH3 domain) [6]: 7%
relative binding strength (% of the strongest interaction of this SH3 domain) [7]: 18%
B2: GST-tagged ARHGAP4 SH3 domain (domain or fragment)
chain: not shown

relative binding strength (% of the strongest interaction of this SH3 domain) [8]: 9%
relative binding strength (% of the strongest interaction of this SH3 domain) [9]: 100%
relative binding strength (% of the strongest interaction of this SH3 domain) [10]: 55%
relative binding strength (% of the strongest interaction of this SH3 domain) [11]: 18%
B3: GST-tagged SRGAP2 SH3 domain (domain or fragment)
chain: not shown

relative binding strength (% of the strongest interaction of this SH3 domain) [12]: 20%
relative binding strength (% of the strongest interaction of this SH3 domain) [13]: 10%
relative binding strength (% of the strongest interaction of this SH3 domain) [14]: 100%
relative binding strength (% of the strongest interaction of this SH3 domain) [15]: 28%
B4: GST-tagged SNX26 SH3 domain (domain or fragment, human, UniProt O14559 189-247, looked up)
chain: AAAHVIKRYTAQAPDELSFEVGDIVSVIDMPPTEDRSWWRGKRGFQVGFFPSECVELFT

relative binding strength (% of the strongest interaction of this SH3 domain) [16]: 100%
relative binding strength (% of the strongest interaction of this SH3 domain) [17]: 27%
relative binding strength (% of the strongest interaction of this SH3 domain) [18]: 6%
relative binding strength (% of the strongest interaction of this SH3 domain) [19]: 91%
relative binding strength (% of the strongest interaction of this SH3 domain) [20]: 64%
B5: GST-tagged ARHGAP26 SH3 domain (domain or fragment, human, UniProt Q9UNA1 759-814, looked up)
chain: RKAKALYACKAEHDSELSFTAGTVFDNVHPSQEPGWLEGTLNGKTGLIPENYVEFL

relative binding strength (% of the strongest interaction of this SH3 domain) [21]: 93%
relative binding strength (% of the strongest interaction of this SH3 domain) [22]: 100%
relative binding strength (% of the strongest interaction of this SH3 domain) [23]: 52%
B6: GST-tagged ARHGAP12 SH3 domain (domain or fragment, human, UniProt Q8IWW6 15-73, looked up)
chain: VYIEVEYDYEYEAKDRKIVIKQGERYILVKKTNDDWWQVKPDENSKAFYVPAQYVKEVT
